Article PMC10094033, “pilE G-Quadruplex Is Recognized and Preferentially Bound but Not Processed by the MutL Endonuclease from Neisseria gonorrhoeae Mismatch Repair Pathway”

Columns and labels:
[1] = biological target: T1, ngMutL (Neisseria gonorrhoeae, UniProt Q5F8M6 1-658); assay: EMSA; increasing ATP; binding not significantly reduced by ATP; 20 mM HEPES pH 8.0, 100 mM KCl, 0.5 mg/mL BSA, 1 mM DTT, 20 nM DNA, 15-1000 nM ngMutL dimer, 10 min on ice; 6% native PAGE in TAE at 4 C; conditions: protein: recombinant; tags: N-terminal His6; chain copies: 2; label: 3'-TAMRA on strand 1; duplex with unpaired G4 insert in strand 1, blunt ends
T1 sequence: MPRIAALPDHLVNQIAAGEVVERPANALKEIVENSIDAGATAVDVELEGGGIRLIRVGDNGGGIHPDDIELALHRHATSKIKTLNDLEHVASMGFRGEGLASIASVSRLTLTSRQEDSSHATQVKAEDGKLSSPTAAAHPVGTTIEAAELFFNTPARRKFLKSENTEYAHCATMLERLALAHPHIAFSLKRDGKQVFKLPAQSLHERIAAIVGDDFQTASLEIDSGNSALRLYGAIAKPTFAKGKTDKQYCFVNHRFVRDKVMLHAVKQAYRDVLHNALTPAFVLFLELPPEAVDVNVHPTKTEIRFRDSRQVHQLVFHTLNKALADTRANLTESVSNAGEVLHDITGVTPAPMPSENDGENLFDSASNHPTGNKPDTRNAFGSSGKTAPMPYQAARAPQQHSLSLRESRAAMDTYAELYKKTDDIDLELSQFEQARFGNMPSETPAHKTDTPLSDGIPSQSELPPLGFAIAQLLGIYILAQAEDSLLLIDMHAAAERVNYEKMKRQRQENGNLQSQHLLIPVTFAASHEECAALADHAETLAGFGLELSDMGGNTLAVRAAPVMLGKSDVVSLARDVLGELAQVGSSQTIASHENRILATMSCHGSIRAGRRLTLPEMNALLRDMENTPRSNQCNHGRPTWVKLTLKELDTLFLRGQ

[2] = biological target: T1, ngMutL; assay: EMSA; apparent Kd, per dimer; no ATP; 20 mM HEPES pH 8.0, 100 mM KCl, 0.5 mg/mL BSA, 1 mM DTT, 20 nM DNA, 15-1000 nM ngMutL dimer, 10 min on ice; 6% native PAGE in TAE at 4 C; conditions: protein: recombinant, tags: N-terminal His6, chain copies: 2, label: 3'-TAMRA on strand 1, blunt

B1: 95G4/76M (mixed)
DNA 1: ATAGGACGCTGACACTGGTGCTTGGCAGCTGAGCCATATTTGGGTGGGTGGGTGGGTTGCTCGAGTAACGCTCATAGGATCCAAGCGCGAAAGGA
DNA 2: TCCTTTCGCGCTTGGATCCTATGAGCGTTACTCGAGCATATGGCTCAGCTGCCAAGCACCAGTGTCAGCGTCCTAT
Question: Does B1 bind [1]?
Answer: Result: binds

B2: 95pilG4/95M (dsDNA)
DNA 1: GTCGGAATTTGAGATTTTTGAATTTACGCGTTAGAATAGGGTGGGTTGGGTGGGGAATTTTCTATTTTTTAAAAAGCTCCGTTTTCTTGGAAAGC
DNA 2: GCTTTCCAAGAAAACGGAGCTTTTTAAAAAATAGAAAATTCCCCACCCAACCCACCCTATTCTAACGCGTAAATTCAAAAATCTCAAATTCCGAC
Question: Which Kd [2] does the source give for B2 here?
Answer: The Kd was 123 nM.

B3: 41pilG4/41M (dsDNA)
DNA 1: ACGCGTTAGAATAGGGTGGGTTGGGTGGGGAATTTTCTATT
DNA 2: AATAGAAAATTCCCCACCCAACCCACCCTATTCTAACGCGT
Question: How did the Kd ([2]; G4 may be partially preserved by CD) turn out when B3 was run?
Answer: The Kd was 650 nM.
